Test results published in patent US20190032060.

Assays:
[1] = target: T1, Insulin receptor (extracellular domain) (Homo sapiens?) (UniProt P06213+P06213); test: filter; settings: 200 mM HEPES, 510 mM NaCl, 25 mM KCl, 25 mM MgCl2, 37 C
[2] = target: T1, Insulin receptor (extracellular domain); test: FP; settings: 6 Nap-dU stated (n positions) [n positions 3,4,10,14,16,20,24 = modified dU]; filter binding assay in fact (see method p97-p99); 200 mM HEPES, 510 mM NaCl, 25 mM KCl, 25 mM MgCl2, 37 C
[3] = target: Insulin receptor, endogenous on 3T3-L1 adipocytes (UniProt P15208+P15208); test: cell_activity; settings: 6 Nap-dU (n positions) [n positions 8,10,11,21,23,27 = modified dU]; 2-deoxyglucose uptake, 4 h treatment
Sequence of Insulin receptor, endogenous on 3T3-L1 adipocytes (P15208 28-748, chain 1 of 2): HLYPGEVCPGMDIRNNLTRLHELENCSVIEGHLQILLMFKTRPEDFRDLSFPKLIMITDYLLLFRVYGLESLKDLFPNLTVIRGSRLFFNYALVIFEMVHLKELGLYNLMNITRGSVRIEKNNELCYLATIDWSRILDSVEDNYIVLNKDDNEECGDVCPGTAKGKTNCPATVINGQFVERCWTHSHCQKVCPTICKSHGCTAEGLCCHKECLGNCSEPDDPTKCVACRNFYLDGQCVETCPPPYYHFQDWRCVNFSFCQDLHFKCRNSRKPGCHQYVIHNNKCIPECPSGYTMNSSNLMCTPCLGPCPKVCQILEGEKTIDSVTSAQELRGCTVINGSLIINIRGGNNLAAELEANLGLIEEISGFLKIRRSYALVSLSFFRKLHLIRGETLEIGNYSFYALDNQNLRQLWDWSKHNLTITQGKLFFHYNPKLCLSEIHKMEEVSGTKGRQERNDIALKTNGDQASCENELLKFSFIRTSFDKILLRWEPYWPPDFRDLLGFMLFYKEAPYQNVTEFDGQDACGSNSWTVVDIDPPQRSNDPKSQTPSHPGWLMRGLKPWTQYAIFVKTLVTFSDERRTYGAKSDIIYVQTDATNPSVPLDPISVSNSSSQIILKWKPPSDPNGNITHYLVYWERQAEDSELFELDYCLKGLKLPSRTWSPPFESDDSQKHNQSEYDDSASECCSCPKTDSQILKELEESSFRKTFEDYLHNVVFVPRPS
Sequence of Insulin receptor, endogenous on 3T3-L1 adipocytes (P15208 753-1372, chain 2 of 2): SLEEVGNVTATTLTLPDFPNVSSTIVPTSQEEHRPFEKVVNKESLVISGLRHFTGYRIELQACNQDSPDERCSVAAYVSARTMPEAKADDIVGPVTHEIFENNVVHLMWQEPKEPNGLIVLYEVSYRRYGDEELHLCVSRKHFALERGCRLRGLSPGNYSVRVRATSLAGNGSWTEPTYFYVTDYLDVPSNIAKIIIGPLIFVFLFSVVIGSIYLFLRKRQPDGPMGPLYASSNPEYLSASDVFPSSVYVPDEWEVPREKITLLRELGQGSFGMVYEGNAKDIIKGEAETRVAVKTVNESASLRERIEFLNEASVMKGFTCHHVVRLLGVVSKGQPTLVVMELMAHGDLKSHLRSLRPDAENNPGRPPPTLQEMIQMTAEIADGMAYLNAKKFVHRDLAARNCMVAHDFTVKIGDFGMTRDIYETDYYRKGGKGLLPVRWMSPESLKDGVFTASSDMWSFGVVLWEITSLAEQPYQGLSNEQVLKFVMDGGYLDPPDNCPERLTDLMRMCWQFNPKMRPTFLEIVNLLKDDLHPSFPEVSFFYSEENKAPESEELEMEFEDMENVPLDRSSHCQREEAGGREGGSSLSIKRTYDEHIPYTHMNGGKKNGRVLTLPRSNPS

In the case of “TATGAGTGACCGTCCGCCTGGTGTTAAGACAACCTCTAGGTCAGGCGCAGTGACGGGTAGCAGCCACACCACCAGCCAAA [IR-A48F]”, the Kd ([1]; 8 Nap-dU in the variable region (n positions) [n positions 22,24,25,35,37,41,51,58 = modified dU]) is reported as 6.9 nM.

CATTACGCATGAGTCTAGATCCGTCAG [IR-A62] showed a Kd [2] of 2.4 nM.

With “CGCCTGGTGTTAAGACAACCTCTAGGTCAGGCG [IR-A48]” the Kd ([1]; 6 Nap-dU (n positions) [n positions 8,10,11,21,23,27 = modified dU]) was 3.5 nM and the EC50 [3] was 66.2 nM.
